We go through two molecules from patent US12258605B2, “Alkane oxidation by modified hydroxylases” (The California Institute of Technology, priority 2005, dated 2025).

Format in all cases: biochemical
Assay [1] in a line: Chloromethane dehalogenation (Purpald detection of formaldehyde). The following applies: chloromethane, cofactor regeneration system. The text has this:
The dehalogenation reaction is based on the hydroxylation of the carbon atom carrying the halogen by a spontaneous (base catalyzed) alpha-elimination reaction which leads to the formation of an aldehyde or ketone depending on the starting haloalkane. The expected reaction mechanism for the dehalogenation of a general alpha-haloalkane is described by the scheme:
To test the feasibility of this approach, chloromethane was chosen as substrate for the dehalogenation reaction. Compared to other haloalkanes, chloromethane (CM) has the advantage to be moderately soluble in water (0.5 g/100 ml) and to lead to formaldehyde as end product of the hydroxylation/alpha-elimination reaction. Formaldehyde can be then readily detected by colorimetric reaction with Purpald as described previously. To test the reaction, two BM-3 mutants from later rounds of random mutagenesis, 35-E1141 and 20-D3, were incubated in the presence of CM and a cofactor regeneration system based on NADP^+, glucose-6-phosphate and glucose-6-phosphate dehydrogenase. Reactions with wild-type P450 BM-3 and without enzyme were included as controls.
The reaction was repeated in the presence of additional BM-3 mutants, including 1-8H, 1-12G2 and the wild-type P450 BM-3 in which A328 was substituted with valine (BM-3-A328V) (FIG. 27B). […] Wild-type BM-3 was substituted with other amino acid residues at position […].
The activity of BM-3-A328V on CM and other substrates such as HME, DME, and propane was further investigated by measuring product formation rate, cofactor consumption and coupling efficiency (Table 14). This mutant was also found to be capable to hydroxylate ethane to ethanol, although only for a total of about 5-10 turnovers. In Table 14 “consumption” rates are expressed as nmol NADPH/nmol enzyme/min and “product formation” rates are expressed as nmol product/nmol enzyme/min.

The nature of assay [2]: Reactions on alkanes, total turnovers (Table 18): hexane. The conditions noted are these: hexane (6 C atoms). On the procedure: (§1) Reactions on alkanes. Reactions with alkanes from pentane to decane were carried out at 3 mL-scale using 100 mM KPi pH 8.0 buffer containing 2% ethanol (to allow alkane solubilization) and purified protein. 2.5 mL KPi buffer were added with 60 μL of 90 mM alkane solution in ethanol (final conc.=1.8 mM), 150 μL enzyme solution at 1 μM (final conc.=50 nM), and 300 μL NADPH regeneration solution (100 units/mL isocitrate dehydrogenase, 70 mg/mL isocitrate, 1.5 mg/ml NADP^+). Vials were sealed and stirred for 24 hours at 4° C. 1 mL-aliquot of the reaction was removed, added with 10 μl internal standard (25 mM 1-bromohexane in ethanol), and extracted with 200 μl chloroform (30 sec vortexing, 1 min centrifugation at 10000 g). The organic phase was removed and analyzed by gas chromatography. Reactions with ethane, propane, and butane were carried out as described for longer alkanes with the only difference that alkane-saturated KPi buffer was used. Propane reactions with variants from HL5 and L9 libraries were performed on 1 mL-scale reaction using 20 nM enzyme to reduce oxygen limitation. Propane and butane reactions were analyzed by direct injection of reaction solution on the GC using 1-pentanol as internal standard. Ethane reaction products were functionalized (see below) and analyzed by GC using 1-butanol as internal standard. All measurements were performed in triplicate.
(§2) Products from alkane reactions were identified and quantified by gas chromatography using authentic standards and calibration curves with internal standards. For the reactions with alkanes from pentane to decane, GC analyses were carried out using a Shimadzu GC-17A gas chromatograph, Agilent HP5 column (30 m×0.32 mm×0.1 μm film), 1 μL injection, FID detector, and the following separation program: 250° C. inlet, 250° C. detector, 50° C. oven for 3 min, 5° C./min gradient to 100° C., 25° C./min gradient to 230° C., and 230° C. for 3 min. For butane and propane (TTN) reactions, GC analyses were carried out using a Hewlett-Packard 5890 Series II Plus gas chromatograph, Supelco SPB-1 column (60 m×0.52 mm×0.5 μm film), 0.5 μL injection, FID detector, and the following separation program: 250° C. inlet, 275° C. detector, 80° C. oven for 2 min, 10° C./min gradient to 110° C., 25° C./min gradient to 275° C., and 275° C. for 2.5 min. For ethane and propane (rate) reactions, analysis of reaction mixtures was carried out by derivatization to alkyl nitrites followed by GC-ECD analysis. For laurate, reaction product analysis was carried out by derivatization with N-methyl-N-trimethylsilylheptafluorobutyramide followed by extraction with hexane. Organic solutions were analyzed by FID-GC.
(§3) TTNs for each variant-substrate pair were determined using standardized reaction conditions (identical enzyme and substrate concentration, incubation time, cofactor regeneration system) (Table 18). TTN values were used to assess performance because TTN is a cumulative measure of both catalytic and coupling efficiency and because mutants were selected based on improvement in this property. To facilitate comparison among the variants, TTNs were normalized to the highest value in the series (MTN=Maximal Turnover Number) and plotted for the increasing-sized substrates (FIG. 38). A gradual shift of the enzyme's substrate preference during laboratory evolution is evident from these profiles. The marginal activity of wild-type BM3 on these substrates (MTN=150) is restricted to the long-chain alkanes, where it is a promiscuous function of BM3's high C12-C20 fatty acid hydroxylase activity. In the first evolutionary intermediates, substrate preference centers on medium-chain alkanes […], reflecting their selection for activity on octane. In 35E11, selected for activity on propane, preference still centers on C6-C8 alkanes but now extends towards the shorter ones, including propane. Propane activity becomes prevalent with the transition from variant ETS8 to 19A12. […]

The nature of assay [3]: Reactions on alkanes, total turnovers (Table 18): butane. On the procedure:
as §1, §2, §3

Assay [4] in a line: Reactions on alkanes, total turnovers (Table 18): decane. The conditions noted are these: decane (10 C atoms). How it is done: as §1, §2, §3
The nature of assay [5]: Reactions on alkanes, total turnovers (Table 18): octane. The following applies: octane (8 C atoms). How it is done: as §1, §2, §3
The nature of assay [6]: Reactions on alkanes, total turnovers (Table 18): pentane. The conditions noted are these: pentane (5 C atoms). How it is done: as §1, §2, §3
A short description of assay [7]: Reactions on alkanes, total turnovers (Table 18): heptane. The conditions noted are these: heptane (7 C atoms). On the procedure:
as §1, §2, §3

Where [8] appears, read: TTN normalized to the highest value of the variant's series.
The mark [9] stands for this setting: total turnovers, standardized reaction conditions.

B1: 20-D3: P450 BM-3 variant, SEQ ID NO:11; 35-E11 plus H285R (protein)
chain: TIKEMPQPKTFGELKNLPLLNTDKPVQALMKIADELGEIFKFEAPGCVTRYLSSQRLIKEACDESRFDKNLSQALKFFRDFSGDGLFTSWTHEINWKKAHNILLPSFSQQAMKGYHAMMVDIAVQLVQKWERLNADEHIEVSEDMTRLTLDTIGLCGFNYRFNSFYRDQPHPFIISMVRALDEVMNKLQRANPDDPAYDENKRQCQEDIKVMNDLVDKIIADRKARGEQSDDLLTQMLNGKDPETGEPLDDGNISYQIITFLIAGHETTSGLLSFALYFLVKNPRVLQKVVEEAARVLVDPVPSYKQVKQLKYVGMVLNEALRLWPTFPAFSLYAKEDTVLGGEYPLEKGDEVMVLIPQLHRDKTIWGDDVEEFRPERFENPSAIPQHAFKPFGNGQRACIGQQFALHEATLVLGMMLKHFDFEDHTNYELDIKETLTLKPEGFVVKAKSKKIPLGGIPSPSTGQSAKKVRKKAENAHNTPLLVLYGSNMGTAEGTARDLADIAMSKGFAPQVATLDSHAGNLPREGAVLIVTASYNGHPPDNAKQFVDWLDQASADEVKGVRYSVFGCGDKNWATTYQKVPAFIDETLAAKGAENIADRGEADASDDFEGTYEEWREHMWSDVAAYFNLDIENSEDNKSTLSLQFVDSAADMPLAKMHGAFSTNVVASKELQQPGSARSTRHLEIELPKEASYQEGDHLGVIPRNYEGTVNRVTARFGLDASQQIRLEAEEEKLAHLPLAKTVSVEELLQYVELQDPVTRTQLRAMAAKTVCPPHKVELEALLEKQAYKEQVLAKRLTMLELLEKYPACEMKFSEFIALLPSIRPRYYSISSSPRVDEKQASITVSVVSGEAWSGYGEYKGIASNYLAELQEGDTITCFISTPQSEFTLPKDPETPLIMVGPGTGVAPFRGFVQARKQLKEQGQSLGEAHLYFGCRSPHEDYLYQEELENAQSEGIITLHTAFSRMPNQPKTYVQHVMEQDGKKLIELLDQGAHFYICGDGSQMAPAVEATLMKSYADVHQVSEADARLWLQQLEEKGRYAKDVWAG
modifications: mutant P450 20-D3 protein sequence
notes: 35-E11 plus H285R
Consider B1, for which, in assay [1], the “colorimetric response (Purpald)” value is recorded as “specific colorimetric response”.

B2: P450PMO: P450 BM-3 variant, SEQ ID NO:125; 7-7 plus G443A and D698G; propane monooxygenase (protein)
chain: TIKEMPQPKTFGELKNLPLLNTDKPVQALMKIADELGEIFKFEAPGCVTRYISSQRLIKEACDESRFDKNLSQELKFFRDFGGDGLFTSWTHEINWKKAHNILLPSFSQQAMKGYHAMMVDIAVQLVQKWERLNADEHIEVSEDMTRLTLDTIGLCGFNYRFNSFYRDQPHPFIISMVRALDEVMNKPQRANPDDPAYDENKRQCQEDIKVMNDLVDKIIADRKARGEQSDDLLTQMLNGKDPETGEPLDDGNISYQIITFLIAGHETTSGLLSFALYFLVKNPHVLQKVVEEAARVLVDPVPSYKQVKQLKYVGMVLNEALRLWPTFPAFSLYAKEDTVLGGEYPLEKGDEVMVLIPQLHRDKTVWGDDVEEFRPERFENPSAIPQHAFKPFGNGQRACIGQQFALHEATLVLGMMLKHFDFEDHTNYELDIKETLTLKPEAFVVKAKSKKIPLGGIPSPSTGQSAKKVRKKAENAHNTPLLVLYGSNMGTAEGTARDLADIAMSKGFAPQVATLDSHAGNLPREGAVLIVTASYNGHPPDNAKQFVDWLDQASADEVKGVRYSVFGCGDKNWATTYQKVPAFIDETLAAKGAENIADRGEADASDDFEGTYEEWREHMWSDVAAYFNLDIENSEDNKSTLSLQFVDSAADMPLAKMHGAFSTNVVASKELQQPGSARSTRHLEIELPKEASYQEGGHLGVIPRNYEGTVNRVTARFGLDASQQIRLEAEEEKLAHLPLAKTVSVEELLQYVELQDPVTRTQLRAMAAKTVCPPHKVELEALLEKQAYKEQVLAKRLTMLELLEKYPACEMKFSEFIALLPSIRPRYYSISSSPRVDEKQASITVSVVSGEAWSGYGEYKGIASNYLAELQEGDTITCFISTPQSEFTLPKDPETPLIMVGPGTGVAPFRGFVQARKQLKEQGQSLGEAHLYFGCRSPHEDYLYQEELENAQSEGIITLHTAFSRMPNQPKTYVQHVMEQDGKKLIELLDQGAHFYICGDGSQMAPAVEATLMKSYADVHQVSEADARLWLQQLEEKGRYAKDVWAG
modifications: Mutant P450PMO protein sequence
notes: 7-7 plus G443A and D698G; propane monooxygenase
In the case of B2, the “% rel. act.” value in assay [2] (setting [8]) was 12.7%; in assay [3] (butane (4 C atoms), TTN normalized to the highest value of the variant's series) it was 30.2%; in assay [4] (setting [8]), 5.3%; in assay [5] (setting [8]), 9.2%; in assay [6] (setting [8]), 4.9%; in assay [7] (setting [8]), 14.6%. The TTN in assay [2] (setting [9]) amounted to 2600 ± 205; in assay [3] (butane (4 C atoms), total turnovers, standardized reaction conditions), 6200 ± 400; in assay [4] (setting [9]), 1080 ± 30; in assay [5] (setting [9]), 1880 ± 60; in assay [6] (setting [9]) it was 1000 ± 110; in assay [7] (setting [9]) it was 2990 ± 165. Also, the “drop in activity when a single methylene unit is added to the substrate” value in assay [3] (relative to propane) is 90%.
